Where two headings read alike, the source gives them in different places.
What was measured:
[1] = target: T1, monomeric gp120^JRCSF (HIV-1 strain JRCSF, UniProt P20871 32-503); assay: gp120 capture ELISA
T1 construct: domain: gp120

[2] = target: CentrB, centromere B; assay: Luminex AtheNA Multi-Lyte ANA test
[3] = target: Sm, Smith antigen; assay: Luminex AtheNA Multi-Lyte ANA test
[4] = target: T2, Jo1 antigen; assay: Luminex AtheNA Multi-Lyte ANA test
T2 construct: also called Jol

[5] = target: RNP, ribonucleoprotein; assay: Luminex AtheNA Multi-Lyte ANA test
[6] = target: Histone; assay: Luminex AtheNA Multi-Lyte ANA test
[7] = target: T3, SSA, Sjogren's syndrome antigen A; assay: Luminex AtheNA Multi-Lyte ANA test
T3 construct: also called SSA/Ro

[8] = target: T4, SSB, Sjogren syndrome antigen B (Homo sapiens (Human), UniProt P05455 1-408); assay: Luminex AtheNA Multi-Lyte ANA test
T4 construct: also called SS-B/La
T4 sequence: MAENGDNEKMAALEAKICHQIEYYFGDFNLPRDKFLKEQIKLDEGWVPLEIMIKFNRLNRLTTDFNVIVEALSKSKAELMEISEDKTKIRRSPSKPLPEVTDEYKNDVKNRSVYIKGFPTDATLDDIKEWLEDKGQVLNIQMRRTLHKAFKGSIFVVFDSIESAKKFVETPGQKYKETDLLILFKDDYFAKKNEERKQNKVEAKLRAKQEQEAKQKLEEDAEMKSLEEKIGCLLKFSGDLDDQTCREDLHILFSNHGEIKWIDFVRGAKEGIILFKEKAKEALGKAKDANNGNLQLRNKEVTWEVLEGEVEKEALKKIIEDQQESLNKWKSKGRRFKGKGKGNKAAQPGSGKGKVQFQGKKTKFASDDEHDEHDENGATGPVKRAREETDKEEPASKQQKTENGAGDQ

[9] = target: T4, SSB, Sjogren syndrome antigen B; assay: Luminex AtheNA Multi-Lyte ANA test; remark: listed apart in the source
[10] = target: CAAN.A2 (HIV-1); assay: cell-based or functional assay
[11] = target: CAAN.A2 (HIV-1); assay: cell-based or functional assay; remark: listed apart in the source
[12] = target: CAAN.A2 (HIV-1); assay: cell-based or functional assay; remark: listed apart in the source

Sequence of CentrB, centromere B (P07199 2-599): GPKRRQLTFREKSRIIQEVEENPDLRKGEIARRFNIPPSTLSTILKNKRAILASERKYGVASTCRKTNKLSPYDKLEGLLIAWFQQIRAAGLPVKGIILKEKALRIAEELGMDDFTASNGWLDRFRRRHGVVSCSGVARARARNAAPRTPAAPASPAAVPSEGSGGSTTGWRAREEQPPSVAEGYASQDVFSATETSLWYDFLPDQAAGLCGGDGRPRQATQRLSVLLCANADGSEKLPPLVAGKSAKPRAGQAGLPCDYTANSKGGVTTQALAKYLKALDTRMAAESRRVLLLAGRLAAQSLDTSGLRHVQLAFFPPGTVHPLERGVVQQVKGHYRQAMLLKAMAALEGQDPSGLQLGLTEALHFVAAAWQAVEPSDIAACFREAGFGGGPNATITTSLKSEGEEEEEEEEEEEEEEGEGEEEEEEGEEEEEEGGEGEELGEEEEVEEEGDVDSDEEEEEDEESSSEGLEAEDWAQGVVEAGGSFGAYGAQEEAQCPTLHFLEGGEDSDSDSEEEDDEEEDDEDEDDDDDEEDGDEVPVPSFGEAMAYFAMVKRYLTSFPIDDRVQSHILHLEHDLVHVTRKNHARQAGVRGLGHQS

B1: VRC-PG04 (antibody, V domains shown)
VH: QVQLVQSGSGVKKPGASVRVSCWTSEDIFERTELIHWVRQAPGQGLEWIGWVKTVTGAVNFGSPDFRQRVSLTRDRDLFTAHMDIRGLTQGDTATYFCARQKFYTGGQGWYFDLWGRGTLIVVSS
VL: EIVLTQSPGTLSLSPGETASLSCTAASYGHMTWYQKKPGQPPKLLIFATSKRASGIPDRFSGSQFGKQYTLTITRMEPEDFARYYCQQLEFFGQGTRLEIR
Question: For B1, which “Binding affinity relative to WT (%)” value [1] is on record?
Answer: 100%

B2: N6 antibody (antibody, V domains shown)
VH: RAHLVQSGTAMKKPGASVRVSCQTSGYTFTAHILFWFRQAPGRGLEWVGWIKPQYGAVNFGGGFRDRVTLTRDVYREIAYMDIRGLKPDDTAVYYCARDRSYGDSSWALDAWGQGTTVVVSA
VL: YIHVTQSPSSLSVSIGDRVTINCQTSQGVGSDLHWYQHKPGRAPKLLIHHTSSVEDGVPSRFSGSGFHTSFNLTISDLQADDIATYYCQVLQFFGRGSRLHIK
notes: also called N6 mAb
Question: With B2 as the binder, how does the “Luminex reactivity (unit not given)” value [2] read?
Answer: 22

Question: What about the “Luminex reactivity (unit not given)” value [3] of the same binder?
Answer: 5.2

Question: What about the “Luminex reactivity (unit not given)” value [4] of the same binder?
Answer: 56.4

Question: And the “Luminex reactivity (unit not given)” value [5]?
Answer: 16.8

Question: And the “Luminex reactivity (unit not given)” value [6]?
Answer: 50.6

Question: What about the “Luminex reactivity (unit not given)” value [7] of the same binder?
Answer: 36.4

Question: What about the “Luminex reactivity (unit not given)” value [8] of the same binder?
Answer: 100

Question: Does B2 bind [9]?
Answer: no binding (tested: 50 µg/ml)

B3: VRC01 (antibody, V domains shown)
VH: QVQLVQSGGQMKKPGESMRISCRASGYEFIDCTLNWIRLAPGKRPEWMGWLKPRGGAVNYARPLQGRVTMTRDVYSDTAFLELRSLTVDDTAVYFCTRGKNCDYNWDFEHWGRGTPVIVSS
VL: EIVLTQSPGTLSLSPGETAIISCRTSQYGSLAWYQQRPGQAPRLVIYSGSTRAAGIPDRFSGSRWGPDYNLTISNLESGDFGVYYCQQYEFFGQGTKVQVDI
Question: With B3 as the binder, how does the “neutralisation IC50” value [10] read?
Answer: 1.06 µg/mL

Question: What about the “neutralisation IC50” value [11] of the same binder?
Answer: 1.06 µg/mL

Question: What about the “neutralisation IC50” value [12] of the same binder?
Answer: 1.06 µg/mL
